B1: library; a variant is named by its letters at N, in order (parent)
chain: GCUGUCACCGGUGCUUGGUACGUUAUAUUCAGCCGGUCUGAUGAGUCUNNNNNNAGACGAAACAGC

± gives the standard deviation of the averaged measurements.

The variants in data set [1] derive from B1. In words: normalized RNA/DNA level without ligand (relative to sTRSVctl = 100) (log10 (% of sTRSVctl)); HEK293T overexpressing SLC46A1; higher = less ribozyme self-cleavage, higher mRNA level. The conditions noted are these: without (6R,S)-folinic acid; ligand present: no. The method, boiled down:
(§1)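 RNA level was computed as RNA reads over DNA reads divided by a spiked-in non-cleaving sequence or by the top sequences, then scaled and log-transformed. Scaling was ×100 with log10, the top group was 25 sequences, and the threshold was ≥100 DNA reads. The reads came from HEK293T cells transfected at 4 µg per 6-well well with ribozyme switch library plasmids (mCherry, or eGFP in some ligand experiments). Total RNA was extracted with EDTA 72 h after transfection, with any ligand added 1 h before it.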

The variants in data set [2] derive from B1. In words: normalized RNA/DNA level with ligand (relative to sTRSVctl = 100) (log10 (% of sTRSVctl)); HEK293T overexpressing SLC46A1; ligand concentration (+) RNA-Seq: 6 mM; higher = less ribozyme self-cleavage, higher mRNA level. Conditions: with (6R,S)-folinic acid; ligand present: yes. The method, boiled down: as §1

In the case of GCUGUCACCGGUGCUUGGUACGUUAUAUUCAGCCGGUCUGAUGAGUCUGACUGCAGACGAAACAGC, in data set [1], the “normalized RNA/DNA level without ligand (log10)” value was 1.998 ± 0.0095. Also, the “normalized RNA/DNA level with ligand (log10)” value in data set [2] worked out at 2.02 ± 0.037.

In the case of GCUGUCACCGGUGCUUGGUACGUUAUAUUCAGCCGGUCUGAUGAGUCUAAGAAUAGACGAAACAGC, the “normalized RNA/DNA level without ligand (log10)” value in data set [1] is 1.95 ± 0.0044. For the same variant, in data set [2], the “normalized RNA/DNA level with ligand (log10)” value was determined as 2.011 ± 0.014.

Take GCUGUCACCGGUGCUUGGUACGUUAUAUUCAGCCGGUCUGAUGAGUCUGAGACGAGACGAAACAGC: in data set [1], the “normalized RNA/DNA level without ligand (log10)” value was determined as 1.978 ± 0.014. Moreover, the “normalized RNA/DNA level with ligand (log10)” value in data set [2] turned out to be 2.031 ± 0.014.

Turning to GCUGUCACCGGUGCUUGGUACGUUAUAUUCAGCCGGUCUGAUGAGUCUGAGACCAGACGAAACAGC, the “normalized RNA/DNA level without ligand (log10)” value in data set [1] turned out to be 2.021 ± 0.0065. For the same variant, the “normalized RNA/DNA level with ligand (log10)” value in data set [2] was 2.04 ± 0.057.

Turning to GCUGUCACCGGUGCUUGGUACGUUAUAUUCAGCCGGUCUGAUGAGUCUGAGACAAGACGAAACAGC, in data set [1], the “normalized RNA/DNA level without ligand (log10)” value came out at 1.976 ± 0.0079. Moreover, the “normalized RNA/DNA level with ligand (log10)” value in data set [2] is 2.01 ± 0.031.

In the case of GCUGUCACCGGUGCUUGGUACGUUAUAUUCAGCCGGUCUGAUGAGUCUGAGAGCAGACGAAACAGC, the “normalized RNA/DNA level without ligand (log10)” value in data set [1] came to 1.945 ± 0.01. For the same variant, in data set [2], the “normalized RNA/DNA level with ligand (log10)” value stood at 2.03 ± 0.042.

GCUGUCACCGGUGCUUGGUACGUUAUAUUCAGCCGGUCUGAUGAGUCUAAGAGCAGACGAAACAGC: in data set [1], the “normalized RNA/DNA level without ligand (log10)” value worked out at 1.984 ± 0.0028. The “normalized RNA/DNA level with ligand (log10)” value in data set [2] is 1.99 ± 0.044.

For GCUGUCACCGGUGCUUGGUACGUUAUAUUCAGCCGGUCUGAUGAGUCUUACUCUAGACGAAACAGC, in data set [1], the “normalized RNA/DNA level without ligand (log10)” value came to 2.027 ± 0.0077. In data set [2], the “normalized RNA/DNA level with ligand (log10)” value was 2.05 ± 0.028.

As for GCUGUCACCGGUGCUUGGUACGUUAUAUUCAGCCGGUCUGAUGAGUCUAAGACCAGACGAAACAGC, in data set [1], the “normalized RNA/DNA level without ligand (log10)” value was 2.03 ± 0.033. Further, the “normalized RNA/DNA level with ligand (log10)” value in data set [2] is 2.03 ± 0.03.

As to GCUGUCACCGGUGCUUGGUACGUUAUAUUCAGCCGGUCUGAUGAGUCUAAGACUAGACGAAACAGC, the “normalized RNA/DNA level without ligand (log10)” value in data set [1] stood at 2.01 ± 0.0024. Further, the “normalized RNA/DNA level with ligand (log10)” value in data set [2] was determined as 2.02 ± 0.04.

Turning to GCUGUCACCGGUGCUUGGUACGUUAUAUUCAGCCGGUCUGAUGAGUCUCAGAGAAGACGAAACAGC, the “normalized RNA/DNA level without ligand (log10)” value in data set [1] was found to be 1.999 ± 0.019. For the same variant, the “normalized RNA/DNA level with ligand (log10)” value in data set [2] is 2.01 ± 0.045.

For GCUGUCACCGGUGCUUGGUACGUUAUAUUCAGCCGGUCUGAUGAGUCUCAGAGCAGACGAAACAGC, in data set [1], the “normalized RNA/DNA level without ligand (log10)” value is 2.013 ± 0.01. Also, the “normalized RNA/DNA level with ligand (log10)” value in data set [2] was determined as 2.01 ± 0.028.

Regarding GCUGUCACCGGUGCUUGGUACGUUAUAUUCAGCCGGUCUGAUGAGUCUGAGAAUAGACGAAACAGC, the “normalized RNA/DNA level without ligand (log10)” value in data set [1] amounted to 1.973 ± 0.0097. The “normalized RNA/DNA level with ligand (log10)” value in data set [2] worked out at 2.02 ± 0.051.

As for GCUGUCACCGGUGCUUGGUACGUUAUAUUCAGCCGGUCUGAUGAGUCUCACUGCAGACGAAACAGC, the “normalized RNA/DNA level without ligand (log10)” value in data set [1] turned out to be 2.057 ± 0.016. Further, in data set [2], the “normalized RNA/DNA level with ligand (log10)” value is 2.05 ± 0.032.

As for GCUGUCACCGGUGCUUGGUACGUUAUAUUCAGCCGGUCUGAUGAGUCUCACUGUAGACGAAACAGC, the “normalized RNA/DNA level without ligand (log10)” value in data set [1] was found to be 2.057 ± 0.0081. Besides, the “normalized RNA/DNA level with ligand (log10)” value in data set [2] came out at 2.056 ± 0.011.

With GCUGUCACCGGUGCUUGGUACGUUAUAUUCAGCCGGUCUGAUGAGUCUCAGACUAGACGAAACAGC, the “normalized RNA/DNA level without ligand (log10)” value in data set [1] stood at 2.048 ± 0.0077. The “normalized RNA/DNA level with ligand (log10)” value in data set [2] turned out to be 2.011 ± 0.0042.

Turning to GCUGUCACCGGUGCUUGGUACGUUAUAUUCAGCCGGUCUGAUGAGUCUCAGACGAGACGAAACAGC, the “normalized RNA/DNA level without ligand (log10)” value in data set [1] worked out at 2.028 ± 0.0044. Besides, the “normalized RNA/DNA level with ligand (log10)” value in data set [2] turned out to be 2.009 ± 0.0054.

Turning to GCUGUCACCGGUGCUUGGUACGUUAUAUUCAGCCGGUCUGAUGAGUCUUAGACCAGACGAAACAGC, the “normalized RNA/DNA level without ligand (log10)” value in data set [1] was found to be 2.039 ± 0.0018. In addition, the “normalized RNA/DNA level with ligand (log10)” value in data set [2] was found to be 2.013 ± 0.016.

With GCUGUCACCGGUGCUUGGUACGUUAUAUUCAGCCGGUCUGAUGAGUCUGACUUUAGACGAAACAGC, the “normalized RNA/DNA level without ligand (log10)” value in data set [1] was found to be 1.9897 ± 4.9e-05. The “normalized RNA/DNA level with ligand (log10)” value in data set [2] was 1.97 ± 0.037.

Regarding GCUGUCACCGGUGCUUGGUACGUUAUAUUCAGCCGGUCUGAUGAGUCUGACUUAAGACGAAACAGC, in data set [1], the “normalized RNA/DNA level without ligand (log10)” value stood at 1.982 ± 0.0071. Besides, in data set [2], the “normalized RNA/DNA level with ligand (log10)” value amounted to 1.99 ± 0.022.

Turning to GCUGUCACCGGUGCUUGGUACGUUAUAUUCAGCCGGUCUGAUGAGUCUGACUUCAGACGAAACAGC, in data set [1], the “normalized RNA/DNA level without ligand (log10)” value stood at 2.08 ± 0.029. Moreover, in data set [2], the “normalized RNA/DNA level with ligand (log10)” value is 2.064 ± 0.014.

These data come from the supplement of paper PMC6757056.
